Data from paper PMC7935953, “Insights on autophagosome–lysosome tethering from structural and biochemical characterization of human autophagy factor EPG5” (Communications Biology, 2021).
Where no end group is shown, it is not given here.

How the values were obtained:
[1] = target: T1, GABARAP (Homo sapiens, UniProt O95166); assay: GST pull-down of hEPG5 (wild type and mutants) with GST-GABARAP bait; format: binding; conditions: anti-FLAG western blot, compared to wild-type hEPG5, triplicates
T1 construct: made in house; host or cells: E. coli (T7 Express)
T1 sequence (O95166 whole entry): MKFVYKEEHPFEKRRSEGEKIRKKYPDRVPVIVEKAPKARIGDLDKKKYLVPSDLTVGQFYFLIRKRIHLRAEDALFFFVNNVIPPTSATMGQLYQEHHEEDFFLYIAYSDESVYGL
Protocol: (§1) For GST pull-down analysis, N-terminally GST-tagged LC3 and GABARAP proteins were expressed in Escherichia coli (T7 Express) cells. The cells were induced with 1 mM isopropyl β-d-1-thiogalacpyranoside [IPTG] for 4 h at 25 °C. The cell pellets were resuspended in 25 mL buffer E (50 mM Tris pH 8.0, 150 mM NaCl, and 1 mM PMSF). Cells were then sonicated for four cycles consisting of 1 min sonication followed by 2 min cooling on ice, with duty cycle set to 50% and output control at 5. Cell lysate was then centrifuged at 20,950 × g for 40 min at 4 °C. Supernatant was incubated for 1 h at 4 °C with glutathione resin (50% slurry, GenScript) pre-equilibrated with buffer E, while gently inverting. Resin was returned to the column and washed with buffer E. Proteins were eluted with 10 mM reduced glutathione (GoldBio) in buffer F (50 mM Tris pH 8.0, 150 mM NaCl). Free glutathione was removed by dialysis in buffer F and protein concentration was measured by spectrophotometry (NanoDrop, Thermo Scientific). Glycerol was added to a final concentration of 5%, then solutions were aliquoted and stored at −70 °C.
Pulldowns were performed with a 50 µL slurry of glutathione resin (50% slurry, GenScript). The resin was equilibrated with buffer N (50 mM Tris pH 8.0, 150 mM NaCl, 5% glycerol, 0.01% Tween20, and 0.5 mM DTT) and the beads were incubated with equal amounts (200–240 µg) of purified GST, GST-LC3A/B/C, and GST-GABARAP/L1/L2 bait for 10 min at 4 °C with gentle inversion. The tubes were centrifuged at 500 × g for 2 min, followed by removal of excess bait protein in the supernatant. The resin was then incubated with equal amounts (25–30 µg) of purified His-FLAG-hEPG5, truncated hEPG5 or its corresponding mutants (W550A, W567A, W550A/W567A, F794A, or Q336R). The tubes were once again centrifuged at 500 × g for 2 min, followed by removal of the supernatant. The resin was washed with 1 mL buffer N, centrifuged at 500 × g for 2 min, followed by removal of the excess buffer with five washes. After the final wash and removal of the supernatant, 50 µL 2× SDS loading dye was added to each tube. The tubes were then heated at 65 °C for 10 min, loaded onto two 6–15% gradient SDS–PAGE gels, and stained with Coomassie Blue. For western blots, samples were transferred from a 6–15% gradient SDS–PAGE gel to a nitrocellulose membrane and blocked with Odyssey Blocking Buffer (LI-COR). Mouse anti-FLAG was used as the primary antibody (1:2000; Sigma-Aldrich) and donkey anti-mouse IRDye 680LT as the secondary antibody (1:7500; LI-COR) for visualization on a ChemiDoc Imager (Bio-Rad). Experiments were performed in triplicates.
All experiments were performed in triplicates. ITC data represents means or means ± SEM. Intensity of His-FLAG-hEPG5, GST (control), and GST-LC3/GABARAP subfamily proteins in pull-down assays was quantified using Bio-Rad Image Lab Software v6.0. Statistics were performed using Prism 7 (GraphPad).

[2] = test system: GABARAP subfamily (GABARAP, GABARAPL1, and GABARAPL2); assay: GST pull-down of hEPG5, average over GABARAP subfamily baits; format: binding, human
Protocol: as §1
Pulldowns were performed with a 50 µL slurry of glutathione resin (50% slurry, GenScript). […]
(§2) All experiments were performed in triplicates. […] Intensity of His-FLAG-hEPG5, GST (control), and GST-LC3/GABARAP subfamily proteins in pull-down assays was quantified using Bio-Rad Image Lab Software v6.0. […]

[3] = target: T2, LC3B (Homo sapiens, UniProt Q9GZQ8); assay: ITC of hEPG5 LIR peptides titrated into His-LC3B; format: binding; conditions: 0.6 mM peptide into 0.06 mM His-LC3B, 20 steps, 25 °C, 50 mM Tris pH 7.0, 25 mM NaCl, one-site model, mean of triplicates
T2 construct: made in house; host or cells: E. coli (T7 Express)
Protocol: (§3) For ITC studies, N-terminally His-tagged LC3 and GABARAP proteins were expressed in E. coli (T7 Express) cells. The cells were induced with 1 mM IPTG for 4 h at 25 °C. The cell pellets were resuspended, sonicated, and centrifuged, as described above with buffer G (50 mM Tris pH 7.0, 150 mM NaCl, and 2 mM PMSF). The supernatant was incubated with HisPur^TMNi-NTA resin (Thermo Scientific) pre-equilibrated with buffer G at 4 °C for 1 h. The resin was washed five times with buffer H (50 mM Tris pH 7.0, 150 mM NaCl) and subsequently ten times with buffer H containing 30 mM imidazole. The bound proteins were eluted with buffer H containing 100 mM imidazole once, then 300 mM imidazole for four times, and 500 mM imidazole once. […]
(§4) ITC experiments of hEPG5-LIR1 peptide titrating into His-LC3/GABARAP proteins were performed using ITC200 (GE Healthcare now Malvern Panalytical), while experiments of hEPG5-LIR2 peptide titrating into His-LC3/GABARAP proteins were performed using MicroCal PEAQ-ITC (Malvern Panalytical). […] The ITC data were analyzed with one-site binding model using Origin 7.0 (OriginLab). […]
as §2

[4] = target: T3, LC3C (Homo sapiens, UniProt Q9BXW4); assay: ITC of hEPG5 LIR peptides titrated into His-LC3C; format: binding; conditions: 0.6 mM peptide into 0.06 mM His-LC3C, 20 steps, 25 °C, 50 mM Tris pH 7.0, 25 mM NaCl, one-site model, triplicates
T3 construct: made in house; host or cells: E. coli (T7 Express)
T3 sequence (Q9BXW4 whole entry): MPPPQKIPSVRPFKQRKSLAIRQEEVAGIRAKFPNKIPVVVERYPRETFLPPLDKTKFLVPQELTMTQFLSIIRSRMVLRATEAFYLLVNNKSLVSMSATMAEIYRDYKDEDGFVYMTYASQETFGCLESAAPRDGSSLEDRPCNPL
Protocol: as §3, §4, §2

[5] = Differential scanning fluorimetry (thermal shift assay) of hEPG5; format: physicochemical; conditions: 0.4 mg/mL protein, 10× Sypro Orange, 50 mM Tris pH 8.0, 150 mM NaCl, maximum of first derivative, triplicates
Protocol: Purified wild type His-FLAG-hEPG5 and His-FLAG-hEPG5^Q336R at 0.4 mg/mL were mixed with 10× Sypro Orange dye in buffer F in a final volume of 25 µL. The fluorescence was measured using the MiniOpticon Real-Time PCR system in triplicates. Melting temperature was calculated using the maximum of the first derivative with Prism 7 (GraphPad).

Row | Substance | binding to GABARAP in GST pull-down, in words [1] | also measured
1 | W550A/W567A: hEPG5 double mutant of both tandem LIR motifs | completely abolished GABARAP binding | –
2 | W567A: hEPG5 mutant, first aromatic residue of LIR2 replaced by alanine | mildly | –
3 | hEPG5: recombinant full-length human EPG5, His-FLAG tagged, expressed in a baculovirus-insect cell system | – | hEPG5 precipitated by GABARAP subfamily compared to LC3 subfamily ([2]; fluorescence-based western blotting, triplicates): 2.5 times; Average Ratio of GABARAP Family: LC3 Family ([2]; hEPG5 binding ratio, average of 3 runs): 2.51
4 | W550A: hEPG5 mutant, first aromatic residue of LIR1 replaced by alanine | severely | –
5 | GSGTWTLVDEG [LIR1] | – | Kd with LC3B [3]: bind weakly; Kd with LC3C [4]: bind weakly
6 | hEPG5^F794A: hEPG5 mutant with mutation to the third putative LIR motif | binds GABARAP as strongly as wild-type hEPG5 | –
7 | hEPG5^Δ1–548: hEPG5 truncation devoid of the region between the N-terminus and the two LIR motifs | precipitated by GABARAP at a higher level compared to wild-type hEPG5 | –
8 | hEPG5^Q336R: hEPG5 carrying the Vici syndrome mutation Gln336Arg | did not affect hEPG5’s ability to bind to GABARAP and other human ATG8 proteins | melting temperature higher than wild-type hEPG5 [5]: ~1.5 °C
9 | hEPG5^Δ1770–2579: hEPG5 truncation mutant which excludes the entire C-terminal region | binds GABARAP equally well compared to wild-type hEPG5 | –
